B1: Fab molecule clone 1:7 (Fab, V domains shown)
VH: VQLLEQSGAEVKKPGSSVKVSCQVFGDTFSRYTIQWLRQAPGQGPEWMGNIIPVYNTPNYAQKFQGRLSITADDSTSTAYMELSSLRSEDTAVYFCARVVIPNAIRHTMGYYFDYWGQGTLVTVSS
VL: AELTQSPATLSLSPGERATLSCRASQSVNKYLAWYQQKPGQAPRLLIYDASNRATGIPARFSGSGSGTDFTLTISNLEPEDFAVYYCQQRSDWVTFGGGTKVEIK
B2: Fab molecule clone L1 (Fab, V domains shown)
VH: EVQLLESGGGVVQPGRSLRLSCAASGFTFSAYGMHWVRQAPGKGLEWVAGIWFDGSNQYYSDSVKGRFTVSRDNSRNTLFLQMNSLRPEDTAVYYCATEVLFGSIKGRYYLENWGQGTLVTVSS
VL: AELTQSPGTLSLSVGERATLSCRASQNIYSGYLGWYQQKPGQPPRLLIYGASNRATGIPDRFSGSGSGTDFTLTISRLESEDFAVYYCQQYGSPPYTFGQGTKVEIK
notes: also called Ll
B3: Fab molecule clone L3 (Fab, V domains shown)
VH: EVQLLESGGGVVQPGRSLRLSCAASGFTFKTYGMHWVRQAPGKGLEWVAGISFDGSNQYYADSVKGRFIVSRDNSRDTVFLQMSSLRLEDTAVYYCATEGSPFGSIKGRYYLENWGQGTLVTVSS
VL: AELTQSPATLSVSPGERASLSCRASQSVGNNLAWYQQKPGQAPRLLIYGGNTRATGTPDRFSGSGSGTEFTLTISSLQSEDFAVYFCQHYSTWPLTFGGGTKVEFK
B4: Fab molecule clone A12 (Fab, V domains shown)
VH: EVQLLESGSEVKKPGSSVKVSCRASGGSFRSYNFNWVRQAPGQGLEWMGGIIPMFGTANYAQKFQGRVTITADESTATGYMELSSLRSEDTAVYYCAMPYPKHCSRGSCWGWFDPWGQGTLVTVSS
VL: AELTQSPGTLSLSPGERATLSCRASQSLSSKYLAWYQQKPGQAPRLFIYDASSRATGIPDRFSGSGSGTDFTLSISRLEPEDFAVYYCQQYGTPRTFGQGTKVEIK
B5: Fab molecule clone 1:5 (Fab, V domains shown)
VH: VQLLEQSGAEVRKPGSSVKVSCKASGGTFSGHVITWVRQAPGQGLEWMGESIPIFGSANYAQNYAQKFRDRVSIIADESTSTSFIELSNLRSDDTAVYYCARDPPRYCSAGRCYPGFFQQWGQGTLVTVSS
VL: AELTQSPGTLSLSPGERATLSCRASQSVSSNYLAWYQQRPGQAPRLLIYGASSRATGIPDRFSGSGSGTDFTLTISRLEPEDFAVYYCQLYGNSRWTFGQGTKVEIK
B6: Fab molecule clone 1:11 (Fab, V domains shown)
VH: VQLLEQSGAEVKKPGSSVKVSCKASGGTFSGHVISWVRQAPGQGLEWMGGSISFFGTSNSAQKFQGRVSITADESASTAYMELSSLRSEDTAIYYCAKDPPRFCSGGNCYPGFFQQWGQGTLVTVSS
VL: B5 VL with R23G, S29R, R39K, A51V, L90Q, N93S, R95P, W96R, V104L
B7: Fab molecule clone A8 (Fab, V domains shown)
VH: EVQLLESGPGLVKPSGTLSLTCTVSGGSIRSSHWWSWVRQPPGKGLEWIGEVFFSGSTIYNPSLNDRVFMSVDKSKDQVSLRLSSVTAADTAVYYCARSPIKMNQGRMMLDAFDIWGQGTLVIVSS
VL: AELTQSPSSLSAFVGDRVTITCRASQSISRNLNWYQQKPGTAPKVLIYAASSLQSGVPSRFSGSGSGTDFTLTITSLQPEDFATYYCQQSYTTPRTFGQGTKVEVK

Substitutions are numbered along the chain they refer to. Where “and” joins values, the source holds several entries; their conditions need not be identical. Equal entries are not always repeated. A value given as a limit tells only on which side of the number the result lay.

T2 sequence (P02769 25-607 limits assumed): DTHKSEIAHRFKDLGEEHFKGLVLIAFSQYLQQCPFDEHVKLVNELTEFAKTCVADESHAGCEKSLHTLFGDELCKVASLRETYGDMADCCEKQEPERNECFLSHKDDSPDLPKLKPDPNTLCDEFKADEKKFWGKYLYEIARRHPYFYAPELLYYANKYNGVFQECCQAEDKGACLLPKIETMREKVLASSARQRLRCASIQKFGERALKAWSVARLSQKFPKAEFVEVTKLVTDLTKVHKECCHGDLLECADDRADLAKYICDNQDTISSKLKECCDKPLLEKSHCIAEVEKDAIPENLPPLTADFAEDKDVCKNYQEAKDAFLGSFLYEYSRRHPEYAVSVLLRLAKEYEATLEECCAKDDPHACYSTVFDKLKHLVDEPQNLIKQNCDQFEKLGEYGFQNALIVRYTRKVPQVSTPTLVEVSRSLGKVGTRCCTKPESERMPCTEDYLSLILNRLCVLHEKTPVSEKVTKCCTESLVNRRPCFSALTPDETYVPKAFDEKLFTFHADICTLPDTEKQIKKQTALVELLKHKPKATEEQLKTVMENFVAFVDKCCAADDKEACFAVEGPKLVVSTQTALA
Chain of recombinant HCV E1/E2 complex antigen (P26664 192-383 limits assumed, chain 1 of 2): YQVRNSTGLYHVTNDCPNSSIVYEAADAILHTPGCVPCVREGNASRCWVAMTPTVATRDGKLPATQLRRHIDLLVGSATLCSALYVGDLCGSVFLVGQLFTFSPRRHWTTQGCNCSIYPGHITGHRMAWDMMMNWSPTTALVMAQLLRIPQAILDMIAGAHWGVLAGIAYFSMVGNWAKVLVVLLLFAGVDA
Chain of recombinant HCV E1/E2 complex antigen (P26664 384-746 limits assumed, chain 2 of 2): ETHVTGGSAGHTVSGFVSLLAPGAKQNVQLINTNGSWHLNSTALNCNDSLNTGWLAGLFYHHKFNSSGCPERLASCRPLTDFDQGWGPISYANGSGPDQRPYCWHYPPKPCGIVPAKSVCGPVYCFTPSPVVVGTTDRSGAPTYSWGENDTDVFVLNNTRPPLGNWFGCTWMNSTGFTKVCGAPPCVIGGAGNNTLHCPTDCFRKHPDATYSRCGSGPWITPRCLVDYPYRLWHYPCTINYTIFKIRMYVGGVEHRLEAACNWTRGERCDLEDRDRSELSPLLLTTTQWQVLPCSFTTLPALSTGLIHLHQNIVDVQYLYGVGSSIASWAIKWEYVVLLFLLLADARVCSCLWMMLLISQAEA

For one assay, the target named is T1, recombinant conformational HCV E2 antigen (HCV genotype 1a) (hepatitis C virus, HCV1 (genotype 1a), UniProt P26664 383-715).
T1 sequence (P26664 383-715): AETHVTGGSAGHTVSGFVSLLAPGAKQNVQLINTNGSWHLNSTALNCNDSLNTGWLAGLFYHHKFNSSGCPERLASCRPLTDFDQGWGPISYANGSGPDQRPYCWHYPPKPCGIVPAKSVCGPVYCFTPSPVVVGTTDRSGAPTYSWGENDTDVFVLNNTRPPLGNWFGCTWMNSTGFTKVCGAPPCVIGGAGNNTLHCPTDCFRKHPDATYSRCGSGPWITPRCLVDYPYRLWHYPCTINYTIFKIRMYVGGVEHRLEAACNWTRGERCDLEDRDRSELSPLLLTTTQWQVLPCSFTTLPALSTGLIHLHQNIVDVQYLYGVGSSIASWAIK
Test: not given
For the molecule B1, the Kd is approximately 6 nM.

As for B2, the Kd is approximately 28 nM.

As to B3, the Kd was approximately 28 nM.

In the case of B4, the Kd was approximately 100 nM.

For B5, the Kd was more than 100 nM.

Turning to B6, the Kd was approximately 28 nM.

Take B7: the Kd is approximately 6 nM.

Another assay has as its target T1, recombinant conformational HCV E2 ….
Test: not given
The source holds these as a separate data set.
For B1, the IC50 was 0.02 µg/mL and 0.01 µg/mL.

As to B2, the IC50 is 0.02 µg/mL and 0.03 µg/mL.

On to B3, for which the 50% inhibitory concentration (IC50) was 0.02 µg/mL.

For B4, the IC50 came out at 0.1 µg/mL.

Regarding B5, the IC50 is 1.5 µg/mL and 2.5 µg/mL.

B7: the IC50 came out at 0.001 µg/mL.

Another assay concerns the target T2, bovine serum albumin (bovine, UniProt P02769 25-607).
T2 construct: also called BSA
The experiment in a line: ELISA, coated BSA 5 ug/ml. A general note: In an ELISA, binding on a coated surface is turned into a signal by an enzyme label.
In the case of B1, the binding result is reported as “no binding”.

B3: the binding result was “no binding”.

Turning to B5, the binding result is recorded as “no binding”.

Another assay addresses T2, bovine serum albumin. The experiment in a line: ELISA, […] (100 ug/ml) […].
For B1, the “OD405 nm (ELISA reactivity)” value turned out to be 0.006 OD405 nm.

For the molecule B3, the “OD405 nm (ELISA reactivity)” value is 0.089 OD405 nm.

The next assay has as its target T1, recombinant conformational HCV E2 …. The experiment in a line: ELISA, […] (100 ug/ml) […].
B1: the “OD405 nm (ELISA reactivity)” value is more than 3 OD405 nm.

As for B3, the “OD405 nm (ELISA reactivity)” value is 1.7 OD405 nm.

Another assay has as its target recombinant HCV E1/E2 complex antigen (hepatitis C virus, HCV1, UniProt P26664 192-383; P26664 384-746). The experiment in a line: ELISA, […] (100 ug/ml) […].
With B1, the “OD405 nm (ELISA reactivity)” value was more than 3 OD405 nm.

With B3, the “OD405 nm (ELISA reactivity)” value came out at 2.46 OD405 nm.

A further assay deals with T1, recombinant conformational HCV E2 …. Put plainly: inhibition ELISA: coated E2 1a, soluble E2 as inhibitor.
As for B1, the Ka was approximately 2e+08 M⁻¹.

For B2, the Ka was approximately 4e+07 M⁻¹.

Turning to B3, the Ka was approximately 4e+07 M⁻¹.

As for B4, the Ka was approximately 1e+07 M⁻¹.

Turning to B5, the Ka is less than 1e+07 M⁻¹.

B6: the Ka is approximately 4e+07 M⁻¹.

As to B7, the Ka is approximately 2e+08 M⁻¹.

A further assay addresses T3, HCV E2 antigen (HCV genotype 1b) (hepatitis C virus genotype 1b).
T3 construct: also called E2 1b; E2 antigen of genotype 1b
The experiment in a line: NOB assay: Fab pre-mixed with E2 1b, E2 binding to MOLT-4 cells by flow cytometry; 50% reduction titer, Exp. II. On the technique in general: A flow cytometer gives signals particle by particle.
For the molecule B2, the IC50 was found to be 0.03 µg/mL.

A word on the Kd: it is the equilibrium constant for the complex coming apart. The term IC50 denotes the concentration needed to halve the response being measured.
